Test results published in paper PMC5771688.

Key:
[1] = molecular target: VE-cadherin (VEC) of VEC-positive cells (VEC-null line reconstituted with VEC wild type cDNA) (UniProt P33151); assay: co-IP
[2] = molecular target: β-catenin (endogenous) (mouse (endogenous in mouse ECs)) (UniProt Q02248); assay: co-IP
Sequence of UniProt Q02248 (Q02248 whole entry): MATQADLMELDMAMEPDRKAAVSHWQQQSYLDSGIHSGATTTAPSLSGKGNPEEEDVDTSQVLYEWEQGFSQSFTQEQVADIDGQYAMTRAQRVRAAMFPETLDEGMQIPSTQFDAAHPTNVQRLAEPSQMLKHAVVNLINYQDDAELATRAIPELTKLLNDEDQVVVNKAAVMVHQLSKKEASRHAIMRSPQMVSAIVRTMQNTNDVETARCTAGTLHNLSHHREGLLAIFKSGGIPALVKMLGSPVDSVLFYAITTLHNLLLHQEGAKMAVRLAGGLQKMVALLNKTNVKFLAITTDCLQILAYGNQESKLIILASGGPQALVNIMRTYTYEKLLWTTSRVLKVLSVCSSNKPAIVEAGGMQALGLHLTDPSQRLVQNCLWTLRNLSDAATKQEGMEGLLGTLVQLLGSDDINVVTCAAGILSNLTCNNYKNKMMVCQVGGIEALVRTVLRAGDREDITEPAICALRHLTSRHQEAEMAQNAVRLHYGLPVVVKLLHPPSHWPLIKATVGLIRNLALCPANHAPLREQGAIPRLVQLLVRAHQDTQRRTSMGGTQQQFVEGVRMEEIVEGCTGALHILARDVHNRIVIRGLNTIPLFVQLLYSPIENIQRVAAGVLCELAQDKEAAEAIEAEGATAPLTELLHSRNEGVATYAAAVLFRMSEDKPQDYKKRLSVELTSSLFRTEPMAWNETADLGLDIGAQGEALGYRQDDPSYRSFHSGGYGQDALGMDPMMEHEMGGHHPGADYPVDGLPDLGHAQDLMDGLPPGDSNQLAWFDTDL

Sequence of UniProt P33151 (P33151 48-784): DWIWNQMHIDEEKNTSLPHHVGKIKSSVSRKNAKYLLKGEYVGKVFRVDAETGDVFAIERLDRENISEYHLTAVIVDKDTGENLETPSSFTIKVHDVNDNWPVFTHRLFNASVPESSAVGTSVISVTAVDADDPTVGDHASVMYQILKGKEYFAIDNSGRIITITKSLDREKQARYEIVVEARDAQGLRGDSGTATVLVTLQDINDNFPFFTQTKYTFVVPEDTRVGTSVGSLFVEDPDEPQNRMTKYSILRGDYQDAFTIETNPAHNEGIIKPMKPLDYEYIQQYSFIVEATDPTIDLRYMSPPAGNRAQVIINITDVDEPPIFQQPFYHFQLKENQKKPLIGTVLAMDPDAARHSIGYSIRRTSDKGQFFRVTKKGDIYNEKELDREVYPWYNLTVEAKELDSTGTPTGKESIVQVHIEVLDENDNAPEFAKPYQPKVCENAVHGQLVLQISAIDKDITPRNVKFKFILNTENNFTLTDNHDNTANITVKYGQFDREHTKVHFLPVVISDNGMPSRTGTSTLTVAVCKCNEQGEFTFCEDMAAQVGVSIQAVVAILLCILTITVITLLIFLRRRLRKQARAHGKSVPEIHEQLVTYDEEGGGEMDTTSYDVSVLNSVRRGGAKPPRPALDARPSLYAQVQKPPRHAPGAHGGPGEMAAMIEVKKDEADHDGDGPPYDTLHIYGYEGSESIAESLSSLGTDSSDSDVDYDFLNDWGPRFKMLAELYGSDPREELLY

Row | Substance | percent reduction of VEC/Ezh2 association [1] [%] | percent reduction of VEC/Ezh2 association [2] [%]
1 | TAT-M10 (Ezh2 peptide M10 synthesized in tandem with TAT of human immunodeficiency virus) (from UniProt Q61188 454-473) | 45.3 | 
2 | TAT-P30 (Ezh2 peptide P30 synthesized in tandem with TAT of human immunodeficiency virus) (from UniProt Q61188 585-604) |  | 28
